Data published in patent publication US20210130436A1 (published 2021).
Changes are numbered by the printed parent chain. Names may count otherwise. Blank lines part the entries; values can stand above or below the binder they belong to.

What was measured:
human CTLA4 on CHO cells = molecular target: T1, human CTLA4 on CHO cells (human, UniProt P16410 36-223); experiment: flow cytometry, CHO cells stably expressing CTLA4
T1 construct: whole, on cells; CHO cells stably expressing CTLA4; also called huCTLA4
T1 sequence (P16410 36-223): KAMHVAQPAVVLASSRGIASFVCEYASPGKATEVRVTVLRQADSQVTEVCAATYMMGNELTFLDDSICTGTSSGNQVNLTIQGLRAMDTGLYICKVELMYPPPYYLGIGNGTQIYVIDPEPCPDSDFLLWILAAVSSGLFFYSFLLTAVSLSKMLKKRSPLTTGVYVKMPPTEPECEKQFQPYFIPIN

human PD-L1 on CHO cells = molecular target: T2, human PD-L1 on CHO cells (human, UniProt Q9NZQ7 19-290); experiment: flow cytometry, CHO cells stably expressing PD-L1
T2 construct: whole, on cells; CHO cells stably expressing PD-L1; also called huPD-L1
T2 sequence (Q9NZQ7 19-290): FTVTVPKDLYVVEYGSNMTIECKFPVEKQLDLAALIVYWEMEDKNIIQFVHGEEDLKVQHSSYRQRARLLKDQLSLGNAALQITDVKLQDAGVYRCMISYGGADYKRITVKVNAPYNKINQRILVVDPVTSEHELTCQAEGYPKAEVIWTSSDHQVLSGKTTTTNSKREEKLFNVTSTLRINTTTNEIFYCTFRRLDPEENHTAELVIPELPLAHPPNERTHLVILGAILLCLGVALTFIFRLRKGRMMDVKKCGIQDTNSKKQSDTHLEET

[1] = molecular target: T3, CD28 on Jurkat/IL2 reporter cells (human, UniProt P10747 19-220); experiment: flow cytometry, Jurkat cells (CD28)
T3 construct: whole, on cells; Endogenous CD28 of Jurkat cells; also called Jurkats (CD28)

[2] = molecular target: T4, human CTLA4 (full-length, expressed on CHO cells) (human, UniProt P16410 36-223); experiment: flow cytometry, CHO cells expressing huCTLA4, PE anti-human Fc
T4 construct: also called huCTLA4
T4 sequence (P16410 36-223): as the sequence (P16410 36-223) above

[3] = molecular target: T5, human PD-L1 (full-length, expressed on CHO cells) (human, UniProt Q9NZQ7 19-290); experiment: flow cytometry, CHO cells expressing huPD-L1, PE anti-human Fc
T5 construct: also called huPD-L1; CD274
T5 sequence (Q9NZQ7 19-290): as the sequence (Q9NZQ7 19-290) above

human PD-L1 [4] = molecular target: T6, human PD-L1 (human, UniProt Q9NZQ7 19-290); experiment: flow cytometry, CHO cells stably expressing huPD-L1, 33.3 nM Fc fusion, PE anti-human Fc
T6 construct: whole, on cells; CHO cells stably expressing huPD-L1; also called huPD-L1

human CTLA-4 = molecular target: T7, human CTLA-4 (human, UniProt P16410 36-223); experiment: flow cytometry, CHO cells stably expressing huCTLA-4, 33.3 nM Fc fusion, PE anti-human Fc
T7 construct: whole, on cells; CHO cells stably expressing huCTLA4; also called huCTLA4
T7 sequence (P16410 36-223): as the sequence (P16410 36-223) above

[5] = molecular target: T8, CD28 (endogenously expressed on Jurkat/IL2 reporter cells) (human, UniProt P10747 19-220); experiment: flow cytometry, Jurkat/IL2 reporter cells (endogenous CD28), PE anti-human Fc
T8 construct: Endogenous CD28 of Jurkat cells; also called human CD28

human CD28 = human CD28 (human, UniProt P10747 19-220); experiment: flow cytometry, Jurkat cells (CD28)
human PD-L1 [6] = molecular target: T9, human PD-L1 (human, UniProt Q9NZQ7 19-290); experiment: flow cytometry, CHO cells stably expressing PD-L1
T9 construct: also called huPD-L1; CD274

MFI at 33.3 nM (human CTLA4 on CHO cells): 24600 MFI
MFI at 33.3 nM (human PD-L1 on CHO cells): 4880 MFI
B1: variant CD80 IgV-Fc E35D/M43I/M47L/L85M (Fc fusion, not shown: a dimerising Fc or GST)
chain: VIHVTKEVKEVATLSCGHNVSVEELAQTRIYWQKDKKMVLTMISGDLNIWPEYKNRTIFDITNNLSIVILALRPSDEGTYECVVMKYEKDAFKREHLAEVTLSVKAD

MFI at 33.3 nM [1]: 841 MFI
MFI at 33.3 nM (human PD-L1 on CHO cells): 6460 MFI
B2: variant CD80 IgV-Fc H18Y/E35D/M47V/N48K (Fc fusion, not shown: a dimerising Fc or GST)
chain: B1 chain with H18Y, I43M, L47V, N48K, M85L

MFI at 33.3 nM [1]: 44.6 MFI
MFI at 33.3 nM (human PD-L1 on CHO cells): 2610 MFI
B3: variant CD80 IgV-Fc E35D/L97R (Fc fusion, not shown: a dimerising Fc or GST)
chain: B1 chain with I43M, L47M, M85L, L97R

MFI at 33.3 nM [1]: 99.4 MFI
MFI at 33.3 nM (human CTLA4 on CHO cells): 31200 MFI
B4: variant CD80 IgV-Fc E35D/M47V/T62S/L85Q (Fc fusion, not shown: a dimerising Fc or GST)
chain: B1 chain with I43M, L47V, T62S, M85Q

MFI at 33.3 nM [1]: 274 MFI
MFI at 33.3 nM (human CTLA4 on CHO cells): 28800 MFI
MFI at 33.3 nM (human PD-L1 on CHO cells): 3050 MFI
B5: variant CD80 IgV-Fc E35D/M47V/I61V/L85M (Fc fusion, not shown: a dimerising Fc or GST)
chain: B1 chain with I43M, L47V, I61V

MFI at 33.3 nM [2]: 311000 MFI
MFI at 33.3 nM [3]: 67100 MFI
B6: variant CD80 IgV-Fc E24D/Q33L/E35D/M47V/K54R/L85Q (Fc fusion, not shown: a dimerising Fc or GST)
chain: B1 chain with E24D, Q33L, I43M, L47V, K54R, M85Q

MFI at 33.3 nM (human PD-L1 [4]): 68200 MFI
MFI at 33.3 nM (human CTLA-4): 22400 MFI
B7: variant CD80 IgV-Fc (inert) H18V/A26N/E35D/M47V/V68M/A71G (Fc fusion)
chain: B1 chain with H18V, A26N, I43M, L47V, V68M, A71G, M85L
notes: not shown: inert human IgG1 Fc

MFI at 33.3 nM [2]: 3560 MFI
MFI at 33.3 nM [5]: 303 MFI
B8: variant CD80 IgV-Fc Q33R/E35D/D46E/M47I (Fc fusion, not shown: a dimerising Fc or GST)
chain: B1 chain with Q33R, I43M, D46E, L47I, M85L

MFI at 33.3 nM [2]: 47600 MFI
MFI at 33.3 nM [3]: 47900 MFI
B9: variant CD80 IgV-Fc Q33L/E35D/M47V (Fc fusion, not shown: a dimerising Fc or GST)
chain: B1 chain with Q33L, I43M, L47V, M85L

MFI at 33.3 nM [1]: 582 MFI
MFI at 33.3 nM (human PD-L1 on CHO cells): 3030 MFI
B10: variant CD80 IgV-Fc E35D/N48K/L72V (Fc fusion, not shown: a dimerising Fc or GST)
chain: B1 chain with I43M, L47M, N48K, L72V, M85L

MFI at 33.3 nM [1]: 23.7 MFI
MFI at 33.3 nM (human CTLA4 on CHO cells): 23300 MFI
B11: variant CD80 IgV-Fc E35D/M47V/L85M/R94Q (Fc fusion, not shown: a dimerising Fc or GST)
chain: B1 chain with I43M, L47V, R94Q

MFI at 33.3 nM (human CD28): 1250 MFI
MFI at 33.3 nM (human PD-L1 [6]): 15400 MFI
B12: CD80 IgV-Fc V22D/E24D/E35D/M47L/V68M (Fc fusion, not shown: a dimerising Fc or GST)
chain: B1 chain with V22D, E24D, I43M, V68M, M85L

MFI at 33.3 nM [2]: 28900 MFI
MFI at 33.3 nM [3]: 62100 MFI
B13: variant CD80 IgV-Fc Q33L/E35D/M47V/T79A (Fc fusion, not shown: a dimerising Fc or GST)
chain: B1 chain with Q33L, I43M, L47V, T79A, M85L

MFI at 33.3 nM (human CTLA4 on CHO cells): 20600 MFI
MFI at 33.3 nM (human PD-L1 on CHO cells): 6640 MFI
B14: variant CD80 IgV-Fc E35D/M47L/A71G (Fc fusion, not shown: a dimerising Fc or GST)
chain: B1 chain with I43M, A71G, M85L

MFI at 33.3 nM [2]: 2950 MFI
MFI at 33.3 nM [5]: 314 MFI
B15: variant CD80 IgV-Fc A26E/E35D/M43I/M47L/L85Q/K86E/R94W (Fc fusion, not shown: a dimerising Fc or GST)
chain: B1 chain with A26E, M85Q, K86E, R94W
